Source: patent publication EP4431526A1 (Emfret Analytics GmbH & Co. KG, dated 2024)

T1: human GPVI-Fc fusion protein (human, UniProt Q9HCN6 21-267, limits assumed)
T1 construct: also called human GPVI protein antigen
T1 sequence (looked up): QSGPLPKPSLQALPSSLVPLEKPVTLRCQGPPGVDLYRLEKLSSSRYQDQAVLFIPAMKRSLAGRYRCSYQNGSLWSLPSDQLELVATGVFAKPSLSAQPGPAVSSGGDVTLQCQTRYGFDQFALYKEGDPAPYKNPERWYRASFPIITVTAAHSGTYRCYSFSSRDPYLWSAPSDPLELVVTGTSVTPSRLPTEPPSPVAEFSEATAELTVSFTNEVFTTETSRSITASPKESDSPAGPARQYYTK

B1: HC5 LC1 humanized Fab (Fab, V domains shown)
VH: QVQLQESGPGLVKPSETLSLTCTVSGFSLTSYGVTWIRQPPGKGLEWIGVIWGDGSTNYHSGLRSRVTISVDTSKNQFSLKLSSVTAADTAVYYCAKPIYYDFDDDAMDYWGQGTSVTVSS
VL: EIVLTQSPSSLSASVGDRVTITCKASQNVGTYVAWFQQKPGKAPKSLIYSASYRCSGVPSKFSGSGSGTDFTLTISSLQPEDFATYYCHQYNNYPLTFGQGTKLEIKR
notes: also called VH5:VL1
B2: HC5 LC4 humanized Fab (Fab, V domains shown)
VH: QVQLQESGPGLVKPSETLSLTCTVSGFSLTSYGVTWIRQPPGKGLEWIGVIWGDGSTNYHSGLRSRVTISVDTSKNQFSLKLSSVTAADTAVYYCAKPIYYDFDDDAMDYWGQGTSVTVSS
VL: DIVMTQSPATLSLSPGDRATLSCKASQNVGTYVAWYQQKPGQAPRLLIYSASYRCSGIPARFSGSGSGTDFTLTISSLQSEDFAVYYCHQYNNYPLTFGGGTKVEIKR
notes: also called VH5:VL4
B3: HC3 LC1 humanized Fab (Fab, V domains shown)
VH: QVQLVESGGGVVQPGRSLRLSCVASGFSLTSYGVTWVRQAPGKGLEWVAVIWGDGSTNYHSGLRSRFTISRDNSKNTMFLQMNSLRADDTAVYYCAKPIYYDFDDDAMDYWGQGTLVTVSS
VL: EIVLTQSPSSLSASVGDRVTITCKASQNVGTYVAWFQQKPGKAPKSLIYSASYRCSGVPSKFSGSGSGTDFTLTISSLQPEDFATYYCHQYNNYPLTFGQGTKLEIKR
notes: also called VH3:VL1
B4: HC1 LC3 humanized Fab (Fab, V domains shown)
VH: QVQLQESGPGLVKPSETLSLTCTASGFSLTSYGVTWIRQPPGKGLEWIGVIWGDGSTNYHSGLRSRVTISVDTSKSQFSLKLSSVTAADTAVYYCAKPIYYDFDDDAMDYWGQGTLVTVSS
VL: DIQLTQSPSTLSASVGDRVTITCKASQNVGTYVAWYQQKPGKAPKLLIYSASYRCSGVPSRFSGSGSGTEFTLTISSLQPDDFTTYYCHQYNNYPLTFGQGTKVEIKR
notes: also called VH1:VL3
B5: HC2 LC3 humanized Fab (Fab, V domains shown)
VH: EVQLVESGPGLVKPSETLSLTCTVSGFSLTSYGVTWIRQPPGKGLEWIGVIWGDGSTNYHSGLRSRVTISVDTSKNQFSLKLSSVTAADTAVYYCAKPIYYDFDDDAMDYWGQGTLVTVSS
VL: DIQLTQSPSTLSASVGDRVTITCKASQNVGTYVAWYQQKPGKAPKLLIYSASYRCSGVPSRFSGSGSGTEFTLTISSLQPDDFTTYYCHQYNNYPLTFGQGTKVEIKR
notes: also called VH2:VL3
B6: HC4 LC2 humanized Fab (Fab, V domains shown)
VH: QVQLVESGGGVVQPGRSLRLSCAASGFSLTSYGVTWVRQSPGKGLEWVAVIWGDGSTNYHSGLRSRLTISRDNSKNTLYLEMNSLRTEDTATYYCAKPIYYDFDDDAMDYWGQGTKVTVSS
VL: DIQMTQSPSSLSASVGDRVTITCKASQNVGTYVAWFQQRPGKAPKSLIYSASYRCSGVPSKFSGSGSGTDFTLTINSLQPEDFATYYCHQYNNYPLTFGQGTKVEIKR
notes: also called VH4:VL2
B7: HC5 LC3 humanized Fab (Fab, V domains shown)
VH: QVQLQESGPGLVKPSETLSLTCTVSGFSLTSYGVTWIRQPPGKGLEWIGVIWGDGSTNYHSGLRSRVTISVDTSKNQFSLKLSSVTAADTAVYYCAKPIYYDFDDDAMDYWGQGTSVTVSS
VL: DIQLTQSPSTLSASVGDRVTITCKASQNVGTYVAWYQQKPGKAPKLLIYSASYRCSGVPSRFSGSGSGTEFTLTISSLQPDDFTTYYCHQYNNYPLTFGQGTKVEIKR
notes: also called VH5:VL3
B8: HC3 LC3 humanized Fab (Fab, V domains shown)
VH: QVQLVESGGGVVQPGRSLRLSCVASGFSLTSYGVTWVRQAPGKGLEWVAVIWGDGSTNYHSGLRSRFTISRDNSKNTMFLQMNSLRADDTAVYYCAKPIYYDFDDDAMDYWGQGTLVTVSS
VL: DIQLTQSPSTLSASVGDRVTITCKASQNVGTYVAWYQQKPGKAPKLLIYSASYRCSGVPSRFSGSGSGTEFTLTISSLQPDDFTTYYCHQYNNYPLTFGQGTKVEIKR
notes: also called VH3:VL3
B9: HC2 LC1 humanized Fab (Fab, V domains shown)
VH: EVQLVESGPGLVKPSETLSLTCTVSGFSLTSYGVTWIRQPPGKGLEWIGVIWGDGSTNYHSGLRSRVTISVDTSKNQFSLKLSSVTAADTAVYYCAKPIYYDFDDDAMDYWGQGTLVTVSS
VL: EIVLTQSPSSLSASVGDRVTITCKASQNVGTYVAWFQQKPGKAPKSLIYSASYRCSGVPSKFSGSGSGTDFTLTISSLQPEDFATYYCHQYNNYPLTFGQGTKLEIKR
notes: also called VH2:VL1
B10: HC2 LC2 humanized Fab (Fab, V domains shown)
VH: EVQLVESGPGLVKPSETLSLTCTVSGFSLTSYGVTWIRQPPGKGLEWIGVIWGDGSTNYHSGLRSRVTISVDTSKNQFSLKLSSVTAADTAVYYCAKPIYYDFDDDAMDYWGQGTLVTVSS
VL: DIQMTQSPSSLSASVGDRVTITCKASQNVGTYVAWFQQRPGKAPKSLIYSASYRCSGVPSKFSGSGSGTDFTLTINSLQPEDFATYYCHQYNNYPLTFGQGTKVEIKR
notes: also called VH2:VL2; EMF602
B11: HC1 LC4 humanized Fab (Fab, V domains shown)
VH: QVQLQESGPGLVKPSETLSLTCTASGFSLTSYGVTWIRQPPGKGLEWIGVIWGDGSTNYHSGLRSRVTISVDTSKSQFSLKLSSVTAADTAVYYCAKPIYYDFDDDAMDYWGQGTLVTVSS
VL: DIVMTQSPATLSLSPGDRATLSCKASQNVGTYVAWYQQKPGQAPRLLIYSASYRCSGIPARFSGSGSGTDFTLTISSLQSEDFAVYYCHQYNNYPLTFGGGTKVEIKR
notes: also called VH1:VL4
B12: HC1 LC1 humanized Fab (Fab, V domains shown)
VH: QVQLQESGPGLVKPSETLSLTCTASGFSLTSYGVTWIRQPPGKGLEWIGVIWGDGSTNYHSGLRSRVTISVDTSKSQFSLKLSSVTAADTAVYYCAKPIYYDFDDDAMDYWGQGTLVTVSS
VL: EIVLTQSPSSLSASVGDRVTITCKASQNVGTYVAWFQQKPGKAPKSLIYSASYRCSGVPSKFSGSGSGTDFTLTISSLQPEDFATYYCHQYNNYPLTFGQGTKLEIKR
notes: Monovalent 50 kDa Fab from CHO; also called VH1:VL1
B13: HC4 LC1 humanized Fab (Fab, V domains shown)
VH: QVQLVESGGGVVQPGRSLRLSCAASGFSLTSYGVTWVRQSPGKGLEWVAVIWGDGSTNYHSGLRSRLTISRDNSKNTLYLEMNSLRTEDTATYYCAKPIYYDFDDDAMDYWGQGTKVTVSS
VL: EIVLTQSPSSLSASVGDRVTITCKASQNVGTYVAWFQQKPGKAPKSLIYSASYRCSGVPSKFSGSGSGTDFTLTISSLQPEDFATYYCHQYNNYPLTFGQGTKLEIKR
notes: also called VH4:VL1
B14: HC3 LC2 humanized Fab (Fab, V domains shown)
VH: QVQLVESGGGVVQPGRSLRLSCVASGFSLTSYGVTWVRQAPGKGLEWVAVIWGDGSTNYHSGLRSRFTISRDNSKNTMFLQMNSLRADDTAVYYCAKPIYYDFDDDAMDYWGQGTLVTVSS
VL: DIQMTQSPSSLSASVGDRVTITCKASQNVGTYVAWFQQRPGKAPKSLIYSASYRCSGVPSKFSGSGSGTDFTLTINSLQPEDFATYYCHQYNNYPLTFGQGTKVEIKR
notes: also called VH3:VL2
B15: HC2 LC4 humanized Fab (Fab, V domains shown)
VH: EVQLVESGPGLVKPSETLSLTCTVSGFSLTSYGVTWIRQPPGKGLEWIGVIWGDGSTNYHSGLRSRVTISVDTSKNQFSLKLSSVTAADTAVYYCAKPIYYDFDDDAMDYWGQGTLVTVSS
VL: DIVMTQSPATLSLSPGDRATLSCKASQNVGTYVAWYQQKPGQAPRLLIYSASYRCSGIPARFSGSGSGTDFTLTISSLQSEDFAVYYCHQYNNYPLTFGGGTKVEIKR
notes: also called VH2:VL4
B16: HC5 LC2 humanized Fab (Fab, V domains shown)
VH: QVQLQESGPGLVKPSETLSLTCTVSGFSLTSYGVTWIRQPPGKGLEWIGVIWGDGSTNYHSGLRSRVTISVDTSKNQFSLKLSSVTAADTAVYYCAKPIYYDFDDDAMDYWGQGTSVTVSS
VL: DIQMTQSPSSLSASVGDRVTITCKASQNVGTYVAWFQQRPGKAPKSLIYSASYRCSGVPSKFSGSGSGTDFTLTINSLQPEDFATYYCHQYNNYPLTFGQGTKVEIKR
notes: also called VH5:VL2
B17: HC0 LC0 chimeric Fab fragment (Fab, V domains shown)
VH: QVQLKESGPGLVQPSQSLSITCTVSGFSLTSYGVTWVRQPPGKGLEWLGVIWGDGSTNYHSGLRSRLSISRDDSKSQVFLKLNSLQTDDTATYYCAKPIYYDFDDDAMDYWGQGTSVTVSS
VL: DIVMTQSQKFMSTSVGDRVSVTCKASQNVGTYVAWFQQKPGQSPKTLIYSASYRCSGVPDRFTGSGSGTDFTLTISNVQSDDLAEYFCHQYNNYPLTFGAGTKLELRR
notes: Murine variable domains with human Ig constant domains, expressed in CHO; also called HC0 LCD; chimeric control antibody
B18: HC3 LC4 humanized Fab (Fab, V domains shown)
VH: QVQLVESGGGVVQPGRSLRLSCVASGFSLTSYGVTWVRQAPGKGLEWVAVIWGDGSTNYHSGLRSRFTISRDNSKNTMFLQMNSLRADDTAVYYCAKPIYYDFDDDAMDYWGQGTLVTVSS
VL: DIVMTQSPATLSLSPGDRATLSCKASQNVGTYVAWYQQKPGQAPRLLIYSASYRCSGIPARFSGSGSGTDFTLTISSLQSEDFAVYYCHQYNNYPLTFGGGTKVEIKR
notes: also called VH3:VL4
B19: HC4 LC4 humanized Fab (Fab, V domains shown)
VH: QVQLVESGGGVVQPGRSLRLSCAASGFSLTSYGVTWVRQSPGKGLEWVAVIWGDGSTNYHSGLRSRLTISRDNSKNTLYLEMNSLRTEDTATYYCAKPIYYDFDDDAMDYWGQGTKVTVSS
VL: DIVMTQSPATLSLSPGDRATLSCKASQNVGTYVAWYQQKPGQAPRLLIYSASYRCSGIPARFSGSGSGTDFTLTISSLQSEDFAVYYCHQYNNYPLTFGGGTKVEIKR
notes: also called VH4:VL4

The binders below were run against T1, human GPVI-Fc fusion protein (assay: BLI (Octet), GPVI-Fc on biosensor, 1:1 fit).

| Binder | Kd [pM] | koff [s⁻¹] | kon [M⁻¹ s⁻¹] |
| --- | --- | --- | --- |
| B1 | 333 | 0.000261 | 782000 |
| B2 | 554 | 0.000319 | 576000 |
| B3 | 353 | 0.000587 | 1.66e+06 |
| B4 | 284 | 0.000221 | 777000 |
| B5 | 250 | 0.000144 | 576000 |
| B6 | 395 | 0.000508 | 1.29e+06 |
| B7 | 637 | 0.000437 | 686000 |
| B8 | 299 | 0.000561 | 1.87e+06 |
| B9 | 269 | 0.000189 | 703000 |
| B10 | 175 | 0.000162 | 931000 |
| B11 | 496 | 0.000333 | 671000 |
| B12 | 413 | 0.000332 | 804000 |
| B13 | 425 | 0.000339 | 797000 |
| B14 | 215 | 0.000362 | 1.68e+06 |
| B15 | 693 | 0.0011 | 1.59e+06 |
| B16 | 367 | 0.00024 | 655000 |
| B17 | 427 | 0.000212 | 496000 |
| B18 | 431 | 0.000618 | 1.43e+06 |
| B19 | 572 | 0.000412 | 720000 |
